Assay results: publication PMC2855648

Experiments:
Experiment in all cases: initial velocity, spectrophotometric DTP/DTNB thiol assay
Format in all cases: biochemical, Escherichia coli
[1] = system: CC(=O)SCCNC(=O)CCNC(=O)[C@H](O)C(C)(C)COP(=O)(O)OP(=O)(O)OC[C@H]1O[C@@H](n2cnc3c(N)ncnc32)[C@H](O)[C@@H]1OP(=O)(O)O; settings: fixed saturating kanamycin B, optimum pH 5.6, room temperature
[2] = system: NC[C@H]1O[C@H](O[C@H]2[C@H](O)[C@@H](O[C@H]3O[C@H](CO)[C@@H](O)[C@H](N)[C@H]3O)[C@H](N)C[C@@H]2N)[C@H](N)[C@@H](O)[C@@H]1O; settings: fixed saturating AcCoA, optimum pH 5.6, room temperature
[3] = system: NC[C@@H]1O[C@H](O[C@H]2[C@@H](O)[C@H](O[C@@H]3[C@@H](O)[C@H](N)C[C@H](N)[C@H]3O[C@H]3O[C@H](CN)[C@@H](O)[C@H](O)[C@H]3N)O[C@@H]2CO)[C@H](N)[C@@H](O)[C@@H]1O; settings: fixed saturating AcCoA, optimum pH 5.6, room temperature

AAC(6′)-Ib-wt (Escherichia coli; R102W/Y179D)
Km [1]: 35 ± 2 µM
kcat [1]: 2.32 ± 0.0667 s⁻¹
kcat/Km [1]: 66700 M⁻¹ s⁻¹
Km [2]: 0.27 ± 0.01 µM
kcat [2]: 2.27 ± 0.05 s⁻¹
kcat/Km [2]: 8.38e+06 M⁻¹ s⁻¹
Km [3]: 20 ± 1 µM
kcat [3]: 3.08 ± 0.05 s⁻¹
kcat/Km [3]: 150000 M⁻¹ s⁻¹
